Some results are limits rather than exact numbers.

A short description of the data set: soluble fraction after stress (log2 fold change); higher = more stays soluble; pooled small domains, quantitative proteomics. To be noted: stress: pH 4. The essentials:
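Pooled custom libraries of small protein domains were subjected to pH 4 and measured by high-throughput quantitative proteomics. The log2 fold change in soluble amount per domain is reported, higher values meaning more remained soluble. This is used as a measure of aggregation propensity.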
As to “HMLSDADLAAFREVFDLVDKDKSGAIEMEEVEELTKLLGLDLTRDEVELLVREIDKDGNGEVDFEEFLLVM”, the “soluble fraction (log2)” value is -0.115. The value for “HMLSDHGLNDRQIMVIAGLMNGGTVTVRSIESQYGVSLNTARADVKMLVDAGLLTETGREVNMKVYSWSGK” was -0.22; that for “HMLSDSDTLRDLYLSEQIWNVGDLIRVKGKNDDTHPSWEIIRRGTNYITAIDENYKSHKVWLHDIDI” was -1.4.

Regarding “HMLSEKELLELLNRAKSNYNGITKKGIEAIALKYQGYSNVEIANLYHVKANHISAWISRARSRLKADY”, the “soluble fraction (log2)” value is -0.0621. The value for “HMLSNLYAVLGVGRRATPDEITAAFDAWNARADAGEPIDDPLWERVRYAWDVLSSPSRRDLYDSLVDDATG” was -2.25; that for “HMLSSREEKILNYLNEHQIITRKKAQELLETSQSTAGRVLKIMVDNGLIVQYGGSRSIWYELIK” was -0.269. Under “HMLSTGIIIGDNVALRKTASSNGGIITRLDEGTVVKILASNVNAEWYQVEAGTKTGYVNRLYVNID” stands -0.345. For “HMLSTGQLIRYYRKRAGMTQAELAEEVEMSEPGIRNYELGNRTPSKAQLSAIARGLGIEPEALI”, the “soluble fraction (log2)” value is -0.0764. The value for “HMLSVKEQTYQIIKEKILNQEYPAGARININELAEELGISNSPIREALSLLEQQGLVISNRSSGATVT” was -0.772. The value for “HMLSVLKNVDVNSLSDDKIKTYWQQIQKSGYTLDEVEVLAEAQGISPLKIAAFKRRVQSLQQSLQT” was -0.018. The value for “HMLSYDDTVVIGRNLLENAMKQKNIALEQLTDEVLARLAKELQVESVEAMYAGIGSGKRPSSFIINRLEAH” was -0.454; that for “HMLSYFKIIKNGLVREGPASYYKIAENLEIGTIVQAFEKHDDWYLIKTHSGRIGWIVASDVTPQV” was 0.36; that for “HMLTAHEAILKELRKMLLTGVLSPGEAVRPEIIGESFGVSAVPVREALRILEGEGQVLNRPHKGYVVT” was -0.482. As for “HMLTANPEEVVNRLTSAGEVGVRPLLDVDDPINAISTLLAIREDVYKQFAQFDTVGKSPSEIAHEIDDFL”, the “soluble fraction (log2)” value is -0.162. Under “HMLTEERLQIITDTVNSRSSVTIAELSRILDVSPSTVKRDLNILAEAGKITKVRGGAIALGE” stands 0.164; under “HMLTGDVDRYKDFFIALEKTSPVPIGFEKIIGGAHGYYHLEDKRIAIDEGMSELQTLKTAIHEIAHAKLHD”, -0.123. Turning to “HMLTGNTAKLFAHLVEVMNPKEFVKINRQTVIVEAGIPRGSVGAAIAKLLETGHLIANASGAYKLT”, the “soluble fraction (log2)” value was 0.0211. The value for “HMLTIEEYLTQLKKLMKDRDAATVRDALSDAEEHLRNAMAGEDPSRLDGIIEEYGSPEEIAAAYKIMEEHT” was -0.715; that for “HMLTIQNYFNQVKNIDWEQVPAALSKGHQLVEGASQNNWSAYHSNANIQRVVEAYFQKLNDYLEKN” was -0.168; that for “HMLTKGDRQSIRDSIIYMVGNAPRTLDYIVAESRYSEEDVIEAVRSLLSSHILSIDDSDMISLTRK” was -0.362. As for “HMLTNNYKNDKALRFAKNHGIHESNILKLVSLYENAPEKGFNAQSIAELLGITPRSASRILVKLLQHNLIR”, the “soluble fraction (log2)” value amounted to 0.381. The value for “HMLTPSRVLPYLFEDSFFIDTLSLEKDQVVGFLEYIDERLPPQDLMNKSKEFELIDYLINESEAYLSQ” was -0.311; that for “HMLTQEEITRRRGEILTAAMGVILRKGFLETSMREIAEAAGVGKSTLYDYFPSKDEIMIAYVVD” was -0.869; that for “HMLTRYNVNYYYNGEILQRRKVAEGSAAERITYLSGSLEVTDWYTEADLLRKYDFTEPVTGDLNLYAFARI” was -0.556. Under “HMLTSAQLAEIRQAVRAGQASVVEDLLKNGASPNFRMENGDTGFTYAVRADTPQVAEALLKSGKL” stands -0.00206; under “HMLTTIRKATVNDKTRIMEIYAYARQFMAEHGNPNQWKNNNPSEETIDNDIAKQEMYVIETDGEVHAVFY”, -1.42; under “HMLVDWNYLEGKRGVTTTPLTPSGKARFGDDVVNVLSDGVLVSTGTPVRVLQVLGNRVLVEPLDG”, 0.0163. The value for “HMLVGRDPQALILGSMPSEKSLEEDEYYAHPRNRFWSLMNWLLAGNKTRPAYKTGIEILSSHGIALWV” was -0.578; that for “HMLVIMKTGASEEEIGRVIERIEGEGLSAHVSRGTERTVIGVIGQGVDVHRIAGVLGGMSGVESLVPIS” was 0.0269; that for “HMLVLAENMDVIFTRRTLDDHVVVDYKTTIGEMVKNDEIKGENMDELISAVEKDGYELVSSTSGEIIFLND” was -0.704. As for “HMLVVEPSAELKTIIDKTASFVARNGPEFEARIKNEQNNAKFSFLQPNDPFNPYYRAKIVELGGTV”, the “soluble fraction (log2)” value was -0.174. “HMLVYQRLDKDNFIFEGKTLLNDIYKILDIESNYFEAIRGEADSIAGLLLEIAKSIPTINTEF”: the “soluble fraction (log2)” value was -0.571. The value for “HMLYEDVQVPNVRYWKSRDAKKQLEDLGLRVLTEHVNDAYIQSDQVIRTSPEIGDTLRTGDTVTLYVSDG” was 0.146. The value for “HMMKLSKRQEQIIAVVKEHQPVSGERISDILAVSRATLRSDLSFLTLSGILKASPKVGYTYES” was at least 0.43; that for “HMMLVKKMLNGIMMKEITIKELADQYDVSTRTIQLKIKKLGYEWDSKESIYRYVGKESEPLDVDFSTLI” was -1.47; that for “HMMQEIKLEVINNEELRIDNYINLAGIGLSRSYIQKLIKDGVILVNGKEVKSSYKVSLGDIISVQIPDPG” was -0.209. On to “HMMVIMRANATEPQIANVVAYVEKNGLNAHLSRGAERTVIGVVGDIRRVSKETFELMDGVDSVMRIS”, for which the “soluble fraction (log2)” value is -0.734. In the case of “HMNADKEALIAAAYRNSLIENFGTENVERYEERFNKWADKHDRQGMPMYPTIEKWMNEDNIA”, the “soluble fraction (log2)” value was -0.209. Under “HMNADRIVGQTAKVIHPITPDEKGRVMVDNLDWAAAAQNRGESFEVGEEVSIVRIEGVTVYVQK” stands -0.57; under “HMNADTVIGKAGTVIEKIDNVAATGAVKIDGKVWTARSERDNITIDEGTLVKAMAIEGVKLIVEPVT”, 0.0947; under “HMNAEGLIGREAVALTAVDAHGGRVRLGGEEWSARLSKENGGVSRLSVGDPVRVTDIDGAIAVVAP”, 0.0456. With “HMNAEQLAQVRRQKIGFIFQDFRLFPEYTVRDNILIPFYLDHRAPDEQMLHKLTGILGIAGKLHSRPAQL”, the “soluble fraction (log2)” value was -0.0979.

Regarding “HMNAKVVAPIPGTVLSIDIKVGDVIKIGDRLLVLEAMKMENNIASEKSGTVTAVHVKVGQQVLQNELMIEL”, the “soluble fraction (log2)” value was -1.2. The value for “HMNALNDLESKIFEEVVKAPEIIMNMTIREFASTVHASPTTIVRMTHKLGFSGWNELKTYLQKQKHQIS” was -0.0849; that for “HMNALREVNTSILNVRSGAGTNYSKIGSLTQATRVSVISESNGWSKINYNGKVGYVSSQYLS” was at least 0.43.

Consider “HMNAMKPVLTVSLGVHTDSLSRRLNEEGIIYRWQQAASEQLLLVDSESSSERIAELIHDWRLEQSSS”, for which the “soluble fraction (log2)” value is -0.051. The value for “HMNANTILNSQRILTQLGFNPGPIDGAFGAKTKGALNAFYTSIGKSYDGLLDSNELVELQKALDVSGLKN” was -0.198. The value for “HMNDADAHASVDAALKHLEALAETTPEVRAALELVRRGPDGRVTVDSFARVAEALREISIAVGAS” was -0.632; that for “HMNDELMEQIDEWHKAEKHQEIIDALEQIPEAERDFETTGFLARAYNNIEEYAKAADLLESVRE” was -1.51; that for “HMNDGEIAAPVSGTLQSFKVEDGQTVSEGDLVAVMEAMKMETQILATKGGTIRLLVKEGDYLQAGHALMTI” was -1.07. For “HMNDGTIRVGTNVTIKPSAKRWATGQNIYYGVKGKTYKVIQMNGNRLLLDKVISWINKGDVYVPGS”, the “soluble fraction (log2)” value is 0.192.

For the sequence “HMNDIDRFIEALIEQDTLPGTNSRINEDVISEMKMMTSVEDIKAYAIATVGLTGGQVNNALINSGL”, the “soluble fraction (log2)” value was -1.61. Consider “HMNDIVKIYTTHRIINIEGLAKNEPIMLYTINGTLIDKSVSSNGSAQLHVKGIGVYLVKWANNIVKVIVPN”, for which the “soluble fraction (log2)” value is 0.199. The value for “HMNDLDSLWDIWENLNERGIGDKSEEGQELRDAIREFIDTNELNVRVTRNKTNEDLLTDIEDALEVAKNS” was -2.07; that for “HMNDLIFSTLAEYDRDTITEIISVVDNTRGIGYEVELVRKDLIAMAAQAEARRDYLPSVIGDVEVFKRNLL” was -0.0414; that for “HMNDNQNKQMLWELLKDNRAFDNFDNKDYKTIIHLFNETVNTIDHRTPNLDLIKKNKIFIQDIMQKLSNL” was -1.04.

Turning to “HMNDSGIIGVVINDHEKYEGHVLEDGFISSSLSALSREIDVAGYFMMVKTVVYEGFFQELKGIGNV”, the “soluble fraction (log2)” value worked out at 0.079. “HMNDTNEEAVLSIILKNPQATQGAIAKEVGASLSTVKRIMRNLQKSGKLRREGTNRNGSWVVTGQK”: the “soluble fraction (log2)” value was determined as 0.136.

Take “HMNDTPPELRAALDLLGLKWPLASVELRARYKDLAKQHHPDATGGDKQAEERLKDINRAYSLLKHRLAKQ”: the “soluble fraction (log2)” value turned out to be 0.144.

For “HMNDTVGMNIRRLRKERGMTQGDLADKAGIQRETISKYESNKLTPPSYNLESIEKALKVPAGTLAQ”, the “soluble fraction (log2)” value stood at 0.22.

Take “HMNDYIGVDRAKEIALNHARMNESDVQFAKAKLENDDGVVEYEIEFYFGRTEYDYTIDAVSGNIIEYDVEY”: the “soluble fraction (log2)” value was -0.0067. Under “HMNEDDQLLKVLLAEPLRLEELYNLDLKPQGPYNLQTWIMVHLTELERDGLIARFPDGRYGPAR” stands -1.57; under “HMNEFAYLIKISPEHNNNRYYRMVAEGDNFRIEMGRIGASPVQMKRPMYLWNETYQKKLQEGYTDRTSYTS”, -0.2. For “HMNEIDLEAAKRIALQNAGVESADAAFTKAQLDYDDGVAEYEIEFVAGSTKYEYEISAANGTVLKSSKESV”, the “soluble fraction (log2)” value stood at 0.243. Consider “HMNEIEIHINKLFGKISDSKRKQELMQEITQNLNEKVSDLVSQGQTREQAVKKAIEDFGDIDDLKDELDN”, for which the “soluble fraction (log2)” value is -0.0968.

Take “HMNEIYHQIKVDNVSDDDISLFQYSGIEFDHADYRRGEYIEFAISNRDLSILNNLGYEYQVVHH”: the “soluble fraction (log2)” value is -1.07. In the case of “HMNEKAALIFNEWSDFVSKDDEANAQIKFDELITLYKKTGYTKIALLEVATKQASNGDIEGALAKYSLLID”, the “soluble fraction (log2)” value is -0.919. As to “HMNEKTGTLTVYSSPGWAKVYIDGEYKGITPVMANLTYGDHYVKLTLDGYDSIGNHIDVNSPDQSYTGKF”, the “soluble fraction (log2)” value came to 0.0783.

The record behind these values is the domain aggregation screens of Martell et al. (2025).
